Here are results for one substance from article PMC2954371.

In this assay the target is mosPTP-1 including the transmembrane region (91bp-2202bp), Aedes aegypti AAEL013105, on S2 cells (Aedes aegypti). The assay is described as follows: flow cytometry on cells. On the technique in general: Flow cytometry measures light scatter and fluorescence of single cells or particles in a stream.

For the substance “mosGCTL-1 (mosquito Galactose-specific binding C-Type Lectin), Aedes aegypti AAEL000563 (natural protein)”, the percent of mosPTP-1-expressing cells that bound mosGCTL-1 is over 40%.
